The source of these data is patent US20260226104A1 (Dana-Farber, published 2026).

Experiment [1] has as its target T1, His-BFL-1ΔC (human, UniProt Q16548 1-151).
T1 construct: also called WT His-BFL-1ΔC; wild-type BFL-1 construct; not shown: N-terminal hexahistidine tag (pET17b)
T1 sequence: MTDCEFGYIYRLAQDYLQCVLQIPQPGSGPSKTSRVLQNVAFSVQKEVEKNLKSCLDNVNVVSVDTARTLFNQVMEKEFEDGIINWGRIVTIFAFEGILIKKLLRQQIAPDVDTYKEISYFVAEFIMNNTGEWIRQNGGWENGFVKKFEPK
In words: streptavidin pull-down of biotinylated SAHB from an equimolar mixture of recombinant GST-MCL-1ΔNΔC, BCL-XLΔC and His-BFL-1ΔC; silver stain. As to the method:
The biotinylated D-NA-NOXA-15 F32A SAHB or corresponding acetylated construct was incubated in an equimolar mixture with recombinant BFL-1, BCL-XL, and MCL-1, and then subjected to streptavidin pull-down. […] Additionally, the preferential interactions of these peptides were assessed with endogenous protein in lysates from the A375P melanoma cell line.
WT His-BFL-1ΔC, BCL-XLΔC (tagless), and GST-MCL-1ΔNΔC (1 μM each) were combined and incubated with 3 mM DTT in PBS for thirty minutes at room temperature. Mixtures were treated with vehicle or the indicated C-terminally biotinylated NOXA SAHB (1 μM) for four hours and were then added to 30 μL PBS-washed high-capacity streptavidin (SA) agarose beads (Thermo Fisher Pierce) and incubated with rotation at room temperature for two hours. The beads were then washed three times with NP-40 lysis buffer (1% NP-40, 50 mM Tris pH 8, 100 mM NaCl, 2.5 mM MgCl2) and three times with PBS. To elute bound protein, beads were boiled for ten minutes with 10% SDS containing 10 mg/mL biotin. After elution, samples were boiled with 3×LDS and 2M DTT for twenty minutes. Gel electrophoresis using a 12% Bis-Tris gel was conducted on inputs (2%) and eluates ([…]) and gels were developed using the Pierce silver staining kit (Thermo Fisher).

The target of a further experiment is T2, full length HA-BFL1 (human, UniProt Q16548 1-175).
T2 construct: also called HA-tagged full-length BFL-1; expressed full-length BFL-1; not shown: HA tag
T2 sequence: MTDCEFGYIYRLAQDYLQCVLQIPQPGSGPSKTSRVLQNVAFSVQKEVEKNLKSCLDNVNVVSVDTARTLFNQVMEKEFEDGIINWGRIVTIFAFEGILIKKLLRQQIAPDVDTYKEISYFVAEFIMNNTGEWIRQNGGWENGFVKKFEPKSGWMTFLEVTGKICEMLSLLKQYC
As to the kind of experiment: 293T cells treated with 20 µM NOXA SAHB for 12 hours; anti-HA western of lysates. The source says:
Of note, native BFL-1 runs at a higher molecular weight than recombinant or expressed BFL-1.

Experiment [2] deals with T1, His-BFL-1ΔC. In words: in vitro covalent conjugation; reducing and denaturing gel electrophoresis.
The target of experiment [3] is T3, recombinant full-length BFL-1 (human, UniProt Q16548 1-175).
T3 construct: not shown: N-terminal hexahistidine tag
T3 sequence: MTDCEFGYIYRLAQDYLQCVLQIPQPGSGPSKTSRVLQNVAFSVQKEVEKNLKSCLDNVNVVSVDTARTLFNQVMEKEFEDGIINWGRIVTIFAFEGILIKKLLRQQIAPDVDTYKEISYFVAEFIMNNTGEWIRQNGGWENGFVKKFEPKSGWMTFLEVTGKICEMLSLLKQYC
Described as above.

For another experiment, the target named is T4, MCL-1ΔNΔC (human, UniProt Q07820 172-329).
T4 construct: As printed for the fluorescence polarization assay
T4 sequence (Q07820 172-329, stated change not applied): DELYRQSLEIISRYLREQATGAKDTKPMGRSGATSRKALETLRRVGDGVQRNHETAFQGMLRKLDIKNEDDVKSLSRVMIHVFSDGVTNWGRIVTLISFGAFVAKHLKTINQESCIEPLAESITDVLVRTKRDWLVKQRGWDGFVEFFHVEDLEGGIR
In words: competitive fluorescence polarization against FITC-BID BH3. The protocol:
(§1) The warhead-bearing D-NA-NOXA-15 R31E SAHB was only able to compete with FITC-BID BH3 for binding to BFL-1ΔC C4S/C19S (FIG. 20), and this activity was dependent on the presence of Cys55 in the BH3-binding pocket, as this effect was not observed with BFL-1ΔC C4S/C19S/C55S (FIG. 21).
(§2) Fluorescence polarization (FP) assays were performed as previously described (Pitter et al., 2008 (supra)). Briefly, direct binding curves were first generated by FITC-BID BH3 (25 nM) with serial dilutions of anti-apoptotic protein, and FP was measured at 5 min on a SpectraMax M5 microplate reader (Molecular Devices). For competition assays, a serial dilution of acetylated or warhead-bearing NOXA SAHB was added to the indicated recombinant protein at ~EC75 concentration, as determined by the direct binding assay. FITC-BID BH3 (25 nM) was then added and fluorescence polarization was measured at equilibrium. IC50 values were calculated by nonlinear regression analysis of competitive binding curves using PRISM software (GraphPad).

The target of the next experiment is T5, His-BFL-1ΔC C4S/C19S (human, UniProt Q16548 1-151).
T5 construct: also called BFL-1 C4S/C19S; not shown: N-terminal hexahistidine tag (pET17b)
T5 chain: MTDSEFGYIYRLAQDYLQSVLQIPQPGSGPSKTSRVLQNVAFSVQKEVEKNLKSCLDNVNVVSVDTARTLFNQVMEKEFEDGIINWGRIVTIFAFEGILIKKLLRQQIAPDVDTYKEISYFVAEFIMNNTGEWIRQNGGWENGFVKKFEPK
Described as above. The protocol:
as §1, §2

Bridges are numbered along the chain shown (N, C = ends). Where no end group is shown, it is not given here. [ ]: non-standard residue; d: D form. The star is where a group is joined. D‑NA = N-terminal D-nipecotic acid moiety terminating in acrylamide (cysteine-reactive warhead); Biotin = O=C1N[C@H]2[C@H](CS[C@H]2CCCCC(=O)*)N1; R8 = C=CCCCCCC[C@@](C)(N)C(=O)O; S5 = C=CCCC[C@](C)(N)C(=O)O

B1: biotinylated Ac-NOXA-15 R31E SAHB (peptide)
peptide: Ac-AT[R8]LREFGD[S5]LNFRQK(Biotin)
modifications: staple 3-10
notes: also called acetylated counterpart of D-NA-NOXA-15 R31E
With B1, the binding result with His-BFL-1ΔC [1] was “no binding (tested: 1 µM)”.

B2: D-NA-NOXA-15 F32A (peptide)
peptide: {D‑NA}-AT[R8]LRRAGD[S5]LNFRQ
modifications: staple 3-10
notes: also called D-NA-NOXA SAHB-15 F32A; cysteine-reactive NOXA-15 F32A SAHB
As for B2, the binding result (with full length HA-BFL1; in the experiment with His-BFL-1ΔC [2]; in experiment [3]) was “binds” throughout.

B3: Ac-NOXA-15 R31E (peptide)
peptide: Ac-AT[R8]LREFGD[S5]LNFRQ
modifications: staple 3-10
notes: also called acetylated NOXA-15 R31E SAHB; acetylated counterpart of D-NA-NOXA-15 R31E
For the molecule B3, the binding result with MCL-1ΔNΔC is on record as “binds”.

B4: D-NA-NOXA-15 R31E (peptide)
peptide: {D‑NA}-AT[R8]LREFGD[S5]LNFRQ
modifications: staple 3-10
notes: also called D-NA-NOXA SAHB-15 R31E; cysteine-reactive NOXA-15 R31E SAHB
For B4, the binding result (with full length HA-BFL1; in the experiment with His-BFL-1ΔC [2]; in experiment [3]; with His-BFL-1ΔC C4S/C19S; in the experiment with MCL-1ΔNΔC) was “binds” throughout.
